Values joined by “and” are separate entries in the source; they are usually repeats but may differ in a detail not shown here. Equal values may be shown once.
B1: full-length human TRPV3 channel (expressed in P. pastoris) (natural protein, UniProt Q8NET8 1-790, looked up)
chain: MKAHPKEMVPLMGKRVAAPSGNPAILPEKRPAEITPTKKSAHFFLEIEGFEPNPTVAKTSPPVFSKPMDSNIRQCISGNCDDMDSPQSPQDDVTETPSNPNSPSAQLAKEEQRRKKRRLKKRIFAAVSEGCVEELVELLVELQELCRRRHDEDVPDFLMHKLTASDTGKTCLMKALLNINPNTKEIVRILLAFAEENDILGRFINAEYTEEAYEGQTALNIAIERRQGDIAALLIAAGADVNAHAKGAFFNPKYQHEGFYFGETPLALAACTNQPEIVQLLMEHEQTDITSRDSRGNNILHALVTVAEDFKTQNDFVKRMYDMILLRSGNWELETTRNNDGLTPLQLAAKMGKAEILKYILSREIKEKRLRSLSRKFTDWAYGPVSSSLYDLTNVDTTTDNSVLEITVYNTNIDNRHEMLTLEPLHTLLHMKWKKFAKHMFFLSFCFYFFYNITLTLVSYYRPREEEAIPHPLALTHKMGWLQLLGRMFVLIWAMCISVKEGIAIFLLRPSDLQSILSDAWFHFVFFIQAVLVILSVFLYLFAYKEYLACLVLAMALGWANMLYYTRGFQSMGMYSVMIQKVILHDVLKFLFVYIVFLLGFGVALASLIEKCPKDNKDCSSYGSFSDAVLELFKLTIGLGDLNIQQNSKYPILFLFLLITYVILTFVLLLNMLIALMGETVENVSKESERIWRLQRARTILEFEKMLPEWLRSRFRMGELCKVAEDDFRLCLRINEVKWTEWKTHVSFLNEDPGPVRRTDFNKIQDSSRNNSKTTLNAFEEVEEFPETSV
B2: full-length human TRPV3 (expressed in HEK293S GnTI- cells) (natural protein, UniProt Q8NET8 1-790, looked up)
chain: B1 chain

Target: the molecule itself
Experiment: high-speed atomic force microscopy

Protein | stoichiometry N
B1 | 4 and 5
B2 | 3 and 2
